Assay [1] has as its system supercoiled pUC19 plasmid DNA. Kind of assay: In vitro condensation assay of Mre11 (fluorescence microscopy). Type of assay: biochemical. The following applies: eGFP-tagged truncations with plasmid DNA. The procedure: Fig. 1 Mre11 and the MRX complex assemble DNA-dependent condensates in vitro. a, c Effect of the presence of plasmid DNA on condensation of (a) Alexa488-labeled Mre11 (n = 11 and 9 fields of view for reactions without and with DNA, respectively) and (c) eGFP-tagged MRX (n = 11 (- DNA) and 9 ( + DNA)). Experiments were performed without PEG. b, d Effect of DNase I, in the absence of PEG, on (b) Mre11 (n = 9 (no treatment) and 11 (DNase I)) and (d) MRX (n = 9 (no treatment) and 11 (DNase I)) condensates. Condensates were pre-assembled for 20 min with 5.7 nM pUC19 prior to challenge. Quantification represents total foci intensity (green) in a field of view and total number of foci per 1000 µm^2 (magenta). Foci intensity is normalized to the mean intensity of samples with DNA for (a, c) and untreated samples for (b, d). […] Quantification represents total foci intensity (green) in a field of view (normalized to the mean of + PEG images) and total number of foci per 1000 µm^2 (magenta). […]
Fig. 2 The C-terminal IDR of Mre11 is required for condensation. a AlphaFold2 predicted model of Mre11 (AF-P32829-F1-v4). […] Quantification represents total fluorescence intensity (green) in a field of view and total number of foci per 1000 µm^2 (magenta). […]

In another assay the test system is pUC19 plasmid substrate. Kind of assay: Gel shift assay, plasmid DNA binding. As to conditions: 1 nM pUC19, 25 mM HEPES-HCl pH 7.5, 100 mM NaCl, 5 mM EDTA, 30 °C 30 min. On the procedure:
Proteins were diluted to their appropriate working concentrations in their respective storage buffers. […] Reactions were assembled at 30 °C for 30 mins and resolved in a 1% agarose (SeaKem LE Agarose, Lonza) at 60 V for 120 mins at 4 °C. Gels were stained with SYBR Gold Nucleic Acid Gel Stain (S11497, Invitrogen) for 40 mins and visualized with Amersham Typhoon biomolecular imager (Cytiva).
For orientation: A gel shift assay detects complexes by their altered migration in electrophoresis.

The next assay has as its system spores of yeast strains. Kind of assay: Spore viability assay. As to conditions: Fig. 7c. Type of assay: cell-based, Saccharomyces cerevisiae. On the procedure:
For the spore viability assay, a small patch of the diploid strain was incubated in sporulation media (2% potassium acetate) at 30 °C, 250 rpm for two days. After two days, 1 mL of sporulating culture was centrifuged, and all but 200 µL of supernatant was removed. To digest yeast cells, 2 µL of concentrated sporulation culture was mixed with 100 µL 1 M sorbitol and 1 µL 10 mg/ml zymolyase and incubated at 30 °C for 21 mins. 20 µL of digested cells were dropped on a YPD plate, left to dry for about 10 mins, and were micromanipulated using a tetrad dissector (MSM400, Singer Instruments). At least 20 tetrads were dissected for each assay, and spore viability was assessed by calculating the number of viable spores after 2 days of incubation at 30 °C.

The subject of another assay is Mer2. Nature of the assay: Co-immunoprecipitation of Mer2 and Mre11 from meiotic extracts. Type of assay: binding, Saccharomyces cerevisiae. As to conditions: Supplementary Fig. 6i. On the procedure: Meiotic cultures were collected at 4 h after transferring to SPM, washed once in ice-cold 1 × PBS containing 1 mM PMSF, following which, they were transferred to 1.5 ml screw-cap tubes and were either snap frozen in liquid nitrogen or processed directly. […] 900 µL of 0.5 mm zirconium beads were added to the cell pellet, and cells were lyzed in a Precellys bead beater at 7200 rpm for 12 × 15 seconds while chilling the tubes for 2 min on ice between each cycle. Cell extract was collected by poking a hole at the bottom of the tubes while placing the tubes on top of another 1.5 ml tubes and centrifuging at 800 × g for 1 min at 4 °C. Beads were washed with 500 µl of IP buffer and collected in the same tube. Cell lysate was spun again at 800 g for 5 min at 4 °C and supernatant was transferred to 15 mL tubes. Sonication was performed three times in ice in Bioruptor Plus at intensity (M) in a 30 s ON / 30 s OFF cycle for 15 min each time. The lysate was centrifuged at 15.000 g at 4 °C for 10 min and the supernatant (~ 800 µl) was transferred to new 1.5 ml tubes. 80 µL (10%) was collected as Input fraction and snap frozen. 1 µL of mouse monoclonal anti-myc primary antibody was added to each tube, and tubes were rotated overnight at 5 rpm at 4 °C. The following day, Dynabeads Protein G (30 µl per tube) were added to Protein LoBind tubes and washed two times with 1 mL IP buffer containing 1 mM PMSF using DynaMag2. The lysates with the antibody were transferred to the tubes containing Dynabeads and were rotated for 3-4 hours at 5 rpm at 4 °C, following which, the Dynabeads were collected and washed four times with 1 ml IP buffer containing 1 mM PMSF. Finally, 60 µL IP buffer and 20 µL 4 × Lammelli buffer was added to the tubes and incubated for 5 mins at 95 °C while shaking at 1000 rpm. TCA extraction was performed on the input fractions by adding 8 µL 100 % TCA (final 10 % TCA) and incubating on ice for 30 mins. Precipitated proteins were solubilized in 40 µL 1 × Laemmli sample buffer incubated for 5 mins at 95 °C. Immunoblotting was performed using the protocol described below.

B1: Mre11-IDR: Mre11 disordered region alone (524-677) (protein, UniProt P32829 524-677, looked up, fragment)
chain: NSVRPTPPKENDETNFAFNGNGLDSFRSSNREVRTGSPDITQSHVDNESRITHISQAESSKPTSKPKRVRTATKKKIPAFSDSTVISDAENELGDNNDAQDDVDIDENDIIMVSTDEEDASYGLLNGRKTKTKTRPAASTKTASRRGKGRASRT
Regarding B1, the “Condensation of Mre11 truncations (in words)” value in assay [1] was “failed to form condensates”. Moreover, the “DNA-binding activity (in words)” value in the assay with pUC19 plasmid substrate is listed as “reduced DNA binding as compared to the wild type or Mre11^ΔIDR”.

B2: Mre11-myc (WT) (protein, UniProt P32829 1-692, looked up)
Double-strand break repair …: MDYPDPDTIRILITTDNHVGYNENDPITGDDSWKTFHEVMMLAKNNNVDMVVQSGDLFHVNKPSKKSLYQVLKTLRLCCMGDKPCELELLSDPSQVFHYDEFTNVNYEDPNFNISIPVFGISGNHDDASGDSLLCPMDILHATGLINHFGKVIESDKIKVVPLLFQKGSTKLALYGLAAVRDERLFRTFKDGGVTFEVPTMREGEWFNLMCVHQNHTGHTNTAFLPEQFLPDFLDMVIWGHEHECIPNLVHNPIKNFDVLQPGSSVATSLCEAEAQPKYVFILDIKYGEAPKMTPIPLETIRTFKMKSISLQDVPHLRPHDKDATSKYLIEQVEEMIRDANEETKQKLADDGEGDMVAELPKPLIRLRVDYSAPSNTQSPIDYQVENPRRFSNRFVGRVANGNNVVQFYKKRSPVTRSKKSGINGTSISDRDVEKLFSESGGELEVQTLVNDLLNKMQLSLLPEVGLNEAVKKFVDKDEKTALKEFISHEISNEVGILSTNEEFLRTDDAEEMKALIKQVKRANSVRPTPPKENDETNFAFNGNGLDSFRSSNREVRTGSPDITQSHVDNESRITHISQAESSKPTSKPKRVRTATKKKIPAFSDSTVISDAENELGDNNDAQDDVDIDENDIIMVSTDEEDASYGLLNGRKTKTKTRPAASTKTASRRGKGRASRTPKTDILGSLLAKKRK
modifications: myc tag
In the assay on spores of yeast strains (spores placed: 144 (WT), 80 (ΔC15), 88 (SIM), 80 (ΔC15+ SIM)), B2 came in with a Visible spore colonies of 140. Besides, in the assay on spores of yeast strains (visible spore colonies of spores placed), the “Spore Viability” value was 97.22.

B3: Mer2-EQEK (protein)
chain: MVARGRTDEISTDVSEANSEHSLMITETSSPFRSIFSHSGKVANAGALEASDKAILAWAGALELESMELRENSDKLIKVLNENSKTLCKSLNKFNQLLEQDAATNGNVKTLIKDLASQIENQLDKVSTAMLSKGDEKKTKSDSSYRQVLVEEISRYNSKITRHVTNKQHETEKSMRCTQEMLFNVGSQLEDVHKVLLSLSKDMHSLQTRQTALEMAFREKADHAYDRPDVSLNGTTLLHDMDEAHDKQRKKSVPPPRMMVTRSMKRRRSSSPTLSTSQNHNSEDNDDASHRLKRAARTIIPWEELRPDTLESEL
modifications: left off: V5, internal (after residue 248), kept
Turning to B3, the “Normalized to WT Mer2 IP” value was 56.73 in the assay on Mer2 (Experiment 1) and 70.72 in the assay with Mer2 (Experiment 2).

B4: Mre11-ΔC15: Mre11 lacking the C-terminal 15-residue α-helix (protein)
chain: MDYPDPDTIRILITTDNHVGYNENDPITGDDSWKTFHEVMMLAKNNNVDMVVQSGDLFHVNKPSKKSLYQVLKTLRLCCMGDKPCELELLSDPSQVFHYDEFTNVNYEDPNFNISIPVFGISGNHDDASGDSLLCPMDILHATGLINHFGKVIESDKIKVVPLLFQKGSTKLALYGLAAVRDERLFRTFKDGGVTFEVPTMREGEWFNLMCVHQNHTGHTNTAFLPEQFLPDFLDMVIWGHEHECIPNLVHNPIKNFDVLQPGSSVATSLCEAEAQPKYVFILDIKYGEAPKMTPIPLETIRTFKMKSISLQDVPHLRPHDKDATSKYLIEQVEEMIRDANEETKQKLADDGEGDMVAELPKPLIRLRVDYSAPSNTQSPIDYQVENPRRFSNRFVGRVANGNNVVQFYKKRSPVTRSKKSGINGTSISDRDVEKLFSESGGELEVQTLVNDLLNKMQLSLLPEVGLNEAVKKFVDKDEKTALKEFISHEISNEVGILSTNEEFLRTDDAEEMKALIKQVKRANSVRPTPPKENDETNFAFNGNGLDSFRSSNREVRTGSPDITQSHVDNESRITHISQAESSKPTSKPKRVRTATKKKIPAFSDSTVISDAENELGDNNDAQDDVDIDENDIIMVSTDEEDASYGLLNGRKTKTKTRPAASTKTASRRGKGRASRT
modifications: left off: Gal4 activation domain (from the vector pGAD-C1), end not stated, kept
notes: Mre11 lacking the C-terminal 15-residue α-helix
For B4, the “Normalized to WT Mer2 IP” value in the assay with Mer2 (Experiment 1) came to 68.56.

These data come from article PMC13233820, “Recruitment of Mre11 to recombination sites during meiosis” (Nature Communications, 2026).
